Measured values as given in paper PMC7220375.

Molecular target: full-length t-SNARE complex (mouse His6-SNAP25B, residues 1-206 and rat Syntaxin1A, residues 1-288) (mouse | rat) (UniProt P60879)
Sequence (P60879 whole entry, chain 1 of 2, the tested form may be a part): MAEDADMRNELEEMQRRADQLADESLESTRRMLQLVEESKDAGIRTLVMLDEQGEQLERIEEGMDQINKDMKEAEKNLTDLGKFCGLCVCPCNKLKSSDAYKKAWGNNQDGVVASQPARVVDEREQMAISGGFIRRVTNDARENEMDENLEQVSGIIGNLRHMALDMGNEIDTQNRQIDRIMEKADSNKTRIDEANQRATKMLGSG
Sequence (chain, as listed by the source, chain 2 of 2): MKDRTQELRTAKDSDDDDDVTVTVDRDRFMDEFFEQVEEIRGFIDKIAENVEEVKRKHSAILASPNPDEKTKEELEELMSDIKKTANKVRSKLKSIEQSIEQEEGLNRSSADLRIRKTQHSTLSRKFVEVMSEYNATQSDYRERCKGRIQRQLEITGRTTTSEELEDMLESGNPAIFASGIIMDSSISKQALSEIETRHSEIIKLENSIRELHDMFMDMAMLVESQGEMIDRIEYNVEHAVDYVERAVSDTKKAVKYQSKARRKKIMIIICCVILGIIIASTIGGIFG

## Syt1^LLQQ (rat Synaptotagmin1-His6, residues 57-421, L387Q/L394Q) (from UniProt P21707 57-421) (domain or fragment)
  share of clamped vesicles that stay unfused after Ca2+ (1 mM), normal VAMP2, with 2 µM Cpx (tripartite interface of Syt1 with Cpx and SNAREs): 25%
